Assay results from patent publication US9248180B2, “IC31 nanoparticles” (Valneva Austria GmbH, priority 2010, dated 2016).
Values joined by “and” are separate entries in the source; they are usually repeats but may differ in a detail not shown here. Equal entries are not always repeated.

Columns and labels:
[1] = Viscosity and sterile-filterability of KLK in 10 mM Tris as a function of pH; format: physicochemical; conditions: for Viscosity (cP): 2000 nmol/mL KLK in 10 mM Tris, no salt; for Sterile-filterable: 0.2 μm filter
Description: For sterile filtration, appropriate viscosity of the mixture to be filtered is also critical. Viscosity can be measured e.g. on a Brookfield DV-E rotation viscometer at 20° C. using an LV61 spindle and can be reported as centipoise (cP=milliPascal seconds). Preferred compositions have a viscosity of less than 15 cP. Even more preferred compositions have viscosities of less than 12 cP or even less than 10 cP.
One of the key factors for sterile-filterable compositions is viscosity. At a viscosity >15 cP, sterile filtration through a 0.2 μm filter is no longer possible. The final viscosity of the nanoparticulate IC31® composition correlates to the final pH of the composition due to the fact that the viscosity of KLK in solution increases drastically with increasing pH, resulting in non-sterile-filterable formulations at a final pH of around 7.2.

[2] = test system: CD8+ cells from the lungs; assay: Cytometric Bead Array of cytokines produced by CD8+ lung cells of vaccinated mice; format: in vivo, C57BL/6 mice; conditions: immunizations d0, d13, d28
[3] = CD8+ lung cells stimulated with Medium
[4] = CD8+ lung cells stimulated with SVN19-28
[5] = CD8+ lung cells stimulated with TRP-2180-188

In the case of “KLKLLLLLKLK [peptide component of IC31®]”, the “Viscosity (cP)” value ([1]; pH 6.24) is reported as 9.69 cP, the Sterile-filterable ([1]; pH 6.24) is reported as “Yes” and the “Viscosity (cP)” value ([1]; pH 6.4) is reported as 8.06 cP. For the same sequence, the Sterile-filterable ([1]; pH 6.4) was “Yes”, the “Viscosity (cP)” value ([1]; pH 6.6) was 10.00 cP and the Sterile-filterable ([1]; pH 6.6) was “Yes”. The “Viscosity (cP)” value ([1]; pH 6.73) was 10.00 cP, the Sterile-filterable ([1]; pH 6.73) was “Yes” and the “Viscosity (cP)” value ([1]; pH 6.88) was 10.94 cP. For the same sequence, the Sterile-filterable ([1]; pH 6.88) was “Yes”, the “Viscosity (cP)” value ([1]; pH 7.03) was 11.25 cP and the Sterile-filterable ([1]; pH 7.03) was “Yes”. For the same sequence, the “Viscosity (cP)” value ([1]; pH 7.22) was 15.00 cP, the Sterile-filterable ([1]; pH 7.22) was “Yes/No*” and the “Viscosity (cP)” value ([1]; pH 7.39) was 16.88 cP. The Sterile-filterable ([1]; pH 7.39) was “No”, the “Viscosity (cP)” value ([1]; pH 7.7) was 16.88 cP and the Sterile-filterable ([1]; pH 7.7) was “No”. For the same sequence, the “Viscosity (cP)” value ([1]; pH 7.96) was 25.00 cP, the Sterile-filterable ([1]; pH 7.96) was “No” and the “Viscosity (cP)” value ([1]; pH 8.4) was 21.88 cP and 24.38 cP. For the same sequence, the Sterile-filterable ([1]; pH 8.4) was “No”, the “Viscosity (cP)” value ([1]; pH 8.8) was 87.50 cP and the Sterile-filterable ([1]; pH 8.8) was “No”.
For SVYDFFVWL [TRP-2180-188], the GM-CSF [2, 3] was 46 pg/mL, the IFN-γ [2, 3] was 41 pg/mL and the IL-6 [2, 3] was 109 pg/mL. The TNF-α [2, 3] was 14 pg/mL, the GM-CSF [2, 4] was 57 pg/mL and the IFN-γ [2, 4] was 199 pg/mL. The IL-2 [2, 4] was 43 pg/mL, the IL-6 [2, 4] was 115 pg/mL and the TNF-α ([2]; CD8+ lung cells stimulated with SVN19-28de) was 9 pg/mL. The GM-CSF [2, 5] was 48 pg/mL, the IFN-γ [2, 5] was 301 pg/mL and the IL-2 [2, 5] was 33 pg/mL. For the same sequence, the IL-6 [2, 5] was 185 pg/mL, the IL-10 [2, 5] was 56 pg/mL and the TNF-α [2, 5] was 24 pg/mL.
